Experimental data: patent US20160200781

How the values were obtained:
[1] = test system: ZF11xHunt-Kox-1 (synthetic); assay: cell_activity
[2] = test system: ZF6xHunt-Kox-1 (synthetic); assay: cell_activity; conditions: htt mRNA repression up to 2.5-fold (60%); protein up to 2-fold; STHdh Q111 cells, 20 days
Sequence of ZF6xHunt-Kox-1 (synthetic) (chain, as listed by the source): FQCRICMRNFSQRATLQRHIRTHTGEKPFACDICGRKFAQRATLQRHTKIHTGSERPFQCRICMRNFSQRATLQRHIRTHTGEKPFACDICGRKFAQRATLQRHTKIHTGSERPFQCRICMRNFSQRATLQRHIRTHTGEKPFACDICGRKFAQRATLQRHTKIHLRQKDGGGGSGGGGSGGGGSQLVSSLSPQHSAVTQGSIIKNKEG

Sequence of ZF11xHunt-Kox-1 (synthetic) (chain, as listed by the source): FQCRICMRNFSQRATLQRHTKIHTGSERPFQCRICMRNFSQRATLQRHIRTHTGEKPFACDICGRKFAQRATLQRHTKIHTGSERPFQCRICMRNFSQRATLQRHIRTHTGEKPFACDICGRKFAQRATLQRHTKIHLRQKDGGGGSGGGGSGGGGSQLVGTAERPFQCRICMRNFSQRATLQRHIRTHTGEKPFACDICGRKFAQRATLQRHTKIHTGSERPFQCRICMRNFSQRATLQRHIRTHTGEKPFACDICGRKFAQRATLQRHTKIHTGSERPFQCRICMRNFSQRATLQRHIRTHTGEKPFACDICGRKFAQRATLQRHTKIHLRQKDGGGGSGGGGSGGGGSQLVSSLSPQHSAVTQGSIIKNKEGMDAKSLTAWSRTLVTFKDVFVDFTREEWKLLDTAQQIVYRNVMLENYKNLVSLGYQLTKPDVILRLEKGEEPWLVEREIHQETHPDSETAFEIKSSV

Substance | activity ([1]; mean mutant htt mRNA reduction in R6/2 striatum at 6 weeks, AAV2/1 delivery) [% reduction] | activity ([1]; almost 80% mRNA reduction and 95% protein reduction, STHdh Q111 cells, 20 days) [% reduction] | activity [2] [fold]
R6/2 mutant htt transgene | > 45 | – | –
mutant htt Q111 chromosomal locus | – | 80 | < 2.5
